In patent US20250222125A1, “Anti-FGFR2b Antibodies, Conjugates and Methods of Use” (BeiGene, Ltd., priority 2024, published 2025):
Entries after “also recorded” stand apart in the source; their conditions may differ.

Key:
[1] = target: T1, Human FGFR2b OE cells (Homo sapiens, UniProt P21802); assay: FACS cellular binding, human FGFR2b OE cells (Example 4)
T1 construct: expressed in transfected cells; host or cells: 293T
Experimental: (§1) The binding affinity and specificity of purified anti-FGFR2b antibodies were determined by ELISA and FACS. […] After incubation and washing, the plates were developed with HRP substrate and absorbance was measured. […] After washing twice with FACS buffer, diluted Alexa Fluor 647 goat anti-human IgG secondary antibody was added and incubated with cells for 30 minutes at 4° C. in the dark. After washing twice with FACS buffer, cells were resuspended with FACS buffer and read using a Becton Dickinson LSR FortessaTM cell analyzer. Non-specific binding of these antibodies was evaluated by FACS binding against parental 293T blank cells. Titration curves were generated using a sigmoidal dose-response of nonlinear fit from GraphPadTM Software by Dotmatics.

[2] = target: T2, human FGFR2b (Homo sapiens, UniProt P21802); assay: ELISA protein binding to human FGFR2b (Example 4); conditions: coated protein
Experimental: as §1

[3] = system: Cyno FGFR2b; assay: ELISA binding to recombinant cyno FGFR2b (Example 11)
[4] = target: T2, human FGFR2b; assay: ELISA binding to recombinant human FGFR2b (Example 11)
[5] = target: Human FGFR2c OE cells (Homo sapiens, UniProt P21802); assay: FACS cellular binding, human FGFR2c OE cells (Example 4)
Experimental: as §1

[6] = target: T3, Mouse FGFR2b (Mus musculus, UniProt P21803); assay: FACS binding on Expi293 cells, mouse FGFR2b (Example 10); conditions: Expi293 cells overexpressing mouse FGFR2b
T3 construct: expressed in transfected cells; host or cells: Expi293
Experimental: (§2) To evaluate the binding activity of anti-FGFR2b antibodies to native FGFR2b on living cells, Expi293 cells were engineered to overexpress human FGFR2b, cyno FGFR2b, mouse FGFR2b, or human FGFR2c. Expi293 cells expressing antigens were seeded in 96-well plates, and were incubated with serially diluted anti-FGFR2b antibodies. Goat anti-human IgG [Alexa Fluor® 647] […] The change of mean fluorescent intensity (MFI) of humanized candidates BGAh9239 and BGAh9179 was measured by flow cytometry. EC50 values for dose-dependent binding to native human FGFR2b, cyno FGFR2b, mouse FGFR2b, and human FGFR2c were determined using sigmoidal dose-response curves of nonlinear fit from GraphPad Prism™.

[7] = target: T4, Human FGFR2c (Homo sapiens, UniProt P21802); assay: FACS binding on Expi293 cells, human FGFR2c (Example 10); conditions: Expi293 cells overexpressing human FGFR2c
Experimental: as §2

[8] = target: T2, human FGFR2b; assay: SPR affinity determination, human FGFR2b (Example 9); assay type: binding
Experimental: (§3) For affinity determination, antibodies were captured by anti-human Fc antibodies, and used in the affinity assay based on surface plasmon resonance (SPR) technology. SPR signals were analyzed to calculate the association rates (ka) and dissociation rates (kd) by using the one-to-one Langmuir binding model (BIA Evaluation Software, GE Life Sciences). The equilibrium dissociation constant (KD) was calculated as the ratio of kd/ka. Rmax represents the maximal feasible SPR signal generated by an interaction between a ligand-analyte pair and is represented in response units (RU). BGAh9239 and BGA9179 show similar binding profiles to human FGFR2b and cyno FGFR2b, and are similar to their parental antibodies BGAm1823 and BGAm1371, respectively.

[9] = target: T2, human FGFR2b; assay: FACS binding to native FGFR2b on Expi293 cells, human FGFR2b (Example 10); conditions: Expi293 cells overexpressing human FGFR2b
Experimental: as §2

[10] = target: T4, Human FGFR2c; assay: ELISA binding to recombinant human FGFR2c (Example 11)
[11] = system: Cyno FGFR2b; assay: SPR affinity determination, cyno FGFR2b (Example 9); assay type: binding
Experimental: as §3

[12] = system: phosphorylated FGFR in SNU-16 cells; assay: Inhibition of FGFR2 signaling in SNU-16 cells (Western blot of pFGFR); assay type: cell-based; conditions: antibody 10 μg/ml, FGF7 10 ng/ml, 2 hours
Experimental: Inhibition of the FGFR2 signaling pathway by the humanized antibodies was investigated. SNU-16 cells were grown in RPMI-1640 medium with 10% FBS, collected and washed twice with free medium and then seeded in 12-well plates at 1.5E6 cells/well in serum-free RPMI-1640. The plates were incubated at 37° C., 5% CO2, and 95% humidity in an incubator overnight. Anti-FGFR2b antibodies at a concentration of 10 μg/ml were added to the assay plates. Recombinant human FGF7 or FGF10 protein (10 ng/ml) in the presence of heparin (5 μg/ml) was added to the assay plates. The plates were incubated in a 37° C., 5% CO2, 95% humidity incubator for 2 hours. Following 2 hours incubation, cells were collected and washed twice with cold PBS. NP40 lysis buffer containing 1×PMSF and 1× Protease plus phosphatase inhibitors were added to the cell pellets. The mixture was pipetted up and down to suspend the pellet. The mixture was inverted gently and each placed for 10 minutes on ice, for a total of 30 minutes. The mixture was centrifuged at 12000× rpm for 10 minutes to pellet the cell debris. The supernatant was transferred to a new tube to quantify total protein concentration by BCA Kit. The protein samples were then split and stored at −80° C. for further Western blotting to detect the expression of pFGFR and total FGFR2.
Western blotting procedure: The completely thawed protein samples were mixed with 4×SDS loading buffer and were heated for 10 min at 37° C. Then the mixtures were centrifuged at ˜3500×rpm for 5 min. Equal amounts of proteins were loaded into an SDS-PAGE gel, whereafter proteins were transferred to PVDF membranes using iBlot. The membranes were then subjected to Western blotting analysis, focusing on phosphorylated FGFR and total FGFR2.

[13] = target: T5, Murine FGFR2b OE cells (Mus musculus, UniProt P21803); assay: FACS cellular binding, murine FGFR2b OE cells (Example 4)
T5 construct: expressed in transfected cells; host or cells: 293T
Experimental: as §1

[14] = target: T4, Human FGFR2c; assay: ELISA protein binding to human FGFR2c (Example 4); conditions: coated protein
Experimental: as §1

[15] = system: BaF3_hFGFR2b OE cells; assay: Ligand-induced proliferation inhibition assay in BaF3_hFGFR2b OE cells; assay type: cell-based; conditions: antibody 10 μg/ml, heparin 5 μg/ml, 72 hours
Experimental: The inhibition activity of antibody on ligand-induced cell proliferation was evaluated in an FGFR2b engineered BaF3 cell line system (BaF3_hFGFR2b OE). BaF3 cells are dependent on interleukin-3 (IL-3) for growth. The BaF3 system allows for testing of kinases and kinase inhibitors. Some protein kinases can render BaF3 cells to be independent of IL-3, whereas kinase inhibitors antagonize this effect. Cells were seeded in 96-well plates at 30,000 cells/well in RPMI-1640 medium containing 10% fetal bovine serum. Anti-FGFR2b antibodies at a concentration of 10 μg/ml were added to the assay plates. Recombinant human FGF7 or FGF10 protein (40 ng/ml) in the presence of heparin (5 μg/ml) was added to the assay plates. The plates were incubated at 37° C., 5% CO2, 95% humidity in an incubator for 72 hours. Following incubation, 50 μl Cell Titer Glo reagent was added to each well and the plates were mixed for 1 min and then incubated at RT for 10 min. Luminescence signals were detected and recorded.
The Ba/F3 system is used to investigate downstream oncogenic signaling pathways and the susceptibility of driver variants to therapeutics. Driver-addicted Ba/F3 cells die when the driver-engaged signaling pathway is inhibited, and this effect can be rescued by re-introduction of […].
FIGS. 6 and 7 show the results of Ba/F3 proliferation assays. The net growth on Ba/F3 cells overexpressing FGFR2b is reported after treatment with anti-FGFR2b antibodies of the present disclosure. Normal Ba/F3 cells die shortly after withdrawal of exogenous […]. […] Comparator BGA2311 binds at the N-terminus and is not considered to be a ligand blocker. Thus, BGAm1371 may partially block the FGFR2b signaling pathway, such as the signaling pathway mediated by FGF7.

[16] = system: 293T blank cells; assay: FACS non-specific binding, parental 293T blank cells (Example 4)
Experimental: as §1

[17] = clinical trial, terminated early; cited from earlier work

T2 sequence (P21802 22-822 isoform P21802-3 limits assumed): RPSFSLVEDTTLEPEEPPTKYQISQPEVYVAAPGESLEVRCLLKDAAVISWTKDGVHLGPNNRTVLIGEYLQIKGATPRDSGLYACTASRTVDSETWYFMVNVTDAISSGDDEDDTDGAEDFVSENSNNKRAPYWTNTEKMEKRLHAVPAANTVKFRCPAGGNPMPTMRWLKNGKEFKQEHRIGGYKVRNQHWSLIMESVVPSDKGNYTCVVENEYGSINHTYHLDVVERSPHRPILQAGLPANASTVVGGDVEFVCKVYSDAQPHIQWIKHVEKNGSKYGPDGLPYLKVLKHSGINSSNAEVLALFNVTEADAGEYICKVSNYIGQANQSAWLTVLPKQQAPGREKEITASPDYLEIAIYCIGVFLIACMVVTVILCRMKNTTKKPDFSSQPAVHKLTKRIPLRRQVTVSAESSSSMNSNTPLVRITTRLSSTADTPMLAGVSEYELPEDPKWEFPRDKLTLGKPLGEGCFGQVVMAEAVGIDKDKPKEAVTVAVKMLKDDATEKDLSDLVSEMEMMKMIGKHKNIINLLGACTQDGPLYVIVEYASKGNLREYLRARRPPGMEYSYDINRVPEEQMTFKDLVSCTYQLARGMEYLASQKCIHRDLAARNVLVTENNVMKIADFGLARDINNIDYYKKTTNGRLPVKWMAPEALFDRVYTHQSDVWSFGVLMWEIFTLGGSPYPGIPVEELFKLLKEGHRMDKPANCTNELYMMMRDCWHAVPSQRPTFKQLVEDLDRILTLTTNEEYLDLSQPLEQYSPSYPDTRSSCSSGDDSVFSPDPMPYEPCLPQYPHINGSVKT
T4 sequence (P21802 22-821): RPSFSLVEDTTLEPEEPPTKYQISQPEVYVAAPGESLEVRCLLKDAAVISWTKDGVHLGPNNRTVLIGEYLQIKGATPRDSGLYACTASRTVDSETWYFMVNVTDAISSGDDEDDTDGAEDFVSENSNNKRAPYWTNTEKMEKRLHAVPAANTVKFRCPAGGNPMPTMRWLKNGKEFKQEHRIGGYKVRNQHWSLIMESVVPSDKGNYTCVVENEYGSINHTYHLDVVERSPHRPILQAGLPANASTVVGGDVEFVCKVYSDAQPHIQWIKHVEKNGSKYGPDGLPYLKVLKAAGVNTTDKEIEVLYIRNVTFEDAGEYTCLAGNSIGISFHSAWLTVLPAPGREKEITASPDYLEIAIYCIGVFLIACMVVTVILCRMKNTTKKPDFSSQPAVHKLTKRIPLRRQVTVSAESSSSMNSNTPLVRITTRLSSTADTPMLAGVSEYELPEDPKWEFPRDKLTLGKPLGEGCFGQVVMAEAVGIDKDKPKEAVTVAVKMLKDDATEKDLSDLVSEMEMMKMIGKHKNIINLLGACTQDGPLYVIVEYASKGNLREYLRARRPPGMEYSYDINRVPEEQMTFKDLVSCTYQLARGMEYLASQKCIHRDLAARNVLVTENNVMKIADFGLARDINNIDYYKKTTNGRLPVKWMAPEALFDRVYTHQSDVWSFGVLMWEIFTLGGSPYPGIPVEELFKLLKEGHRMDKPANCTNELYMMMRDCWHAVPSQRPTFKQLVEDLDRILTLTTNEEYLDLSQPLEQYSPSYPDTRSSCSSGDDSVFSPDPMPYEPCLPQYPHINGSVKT
T3 sequence (P21803 22-707 isoform P21803-2 limits assumed): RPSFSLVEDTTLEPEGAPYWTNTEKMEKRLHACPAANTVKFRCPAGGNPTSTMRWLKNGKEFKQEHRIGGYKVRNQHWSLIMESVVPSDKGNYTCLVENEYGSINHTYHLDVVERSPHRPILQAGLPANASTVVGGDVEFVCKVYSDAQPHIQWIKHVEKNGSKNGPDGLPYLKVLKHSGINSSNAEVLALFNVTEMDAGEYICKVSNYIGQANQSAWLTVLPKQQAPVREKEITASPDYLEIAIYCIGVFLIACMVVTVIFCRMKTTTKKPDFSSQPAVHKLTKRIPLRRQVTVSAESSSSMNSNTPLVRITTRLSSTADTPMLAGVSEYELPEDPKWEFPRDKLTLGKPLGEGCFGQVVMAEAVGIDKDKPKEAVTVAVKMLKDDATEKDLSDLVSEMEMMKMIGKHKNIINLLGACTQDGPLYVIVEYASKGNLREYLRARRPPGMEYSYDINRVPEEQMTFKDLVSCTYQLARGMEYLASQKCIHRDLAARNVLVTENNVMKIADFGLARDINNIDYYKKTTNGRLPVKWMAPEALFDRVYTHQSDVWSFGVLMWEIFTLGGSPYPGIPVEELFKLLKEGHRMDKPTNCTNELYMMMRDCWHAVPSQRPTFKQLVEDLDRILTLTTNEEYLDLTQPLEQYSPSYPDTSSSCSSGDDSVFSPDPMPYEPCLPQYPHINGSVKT
T1 sequence (P21802 22-822 isoform P21802-3 limits assumed): as the sequence (P21802 22-822 isoform P21802-3 limits assumed) above
Human FGFR2c OE cells, sequence (P21802 22-821): as the sequence (P21802 22-821) above
T5 sequence (P21803 22-707 isoform P21803-2 limits assumed): as the sequence (P21803 22-707 isoform P21803-2 limits assumed) above

B1: BGAm1371: parental murine anti-FGFR2b antibody (parental mouse clone); VH SEQ ID NO: 32, VL SEQ ID NO: 34 (antibody, V domains shown)
VH: QVQLKQSGAELVKPGASVKLSCTASGFNIKDTYIHWVKQRPEQGLEWIGRIDPANGNTMFASEFQGKATITAYTSSNTAYMQLSSLTSGDTAVYYCARSKIHYDYDEGFAYWGQGTLVTVSS
VL: NIVLTQSPPSLAVSLGQRATVSCRASESVDDYGYSFLHWYQQKPGQPPKLLIYRASNLESGIPARFSGSGSRTDFTLTINPVETDDVATYYCQQSNQNPRTFGGGTKLEIK
modifications: Synthetic: VH AA; Synthetic: VL AA
EC50 [1]: 1.25 nM
EC50 [2]: 0.19 nM
Human FGFR2b binding Emax(OD450) [2]: 3.35 OD450
Emax (A450) [3]: 3.018 A450
EC50 [4]: 0.0309 nM
Emax (A450) [4]: 3.013 A450
Human FGFR2c OE cells binding Emax [5]: 33 MFI
EC50 [6]: 3.5 nM
Emax (MFI) [6]: 4984598 MFI
Emax (MFI) [7]: 23051 MFI
Rmax [8]: 96.3 RU
ka [8]: 7.29E+04 M^−1S^−1
kd [8]: 1.19E−03 S^−1
Kd ([8]; kd/ka): 16.3 nM
EC50 [9]: 1.5 nM
Emax (MFI) [9]: 3052664 MFI
Emax (A450) ([10]; human FGFR2c): 0.204 A450
binding to human FGFR2c ([10]; in words): no detectable binding
ka [11]: 7.97E+04 M^−1S^−1
kd [11]: 1.25E−03 S^−1
FGF7-induced FGFR phosphorylation [12]: weakly inhibited
EC50 [13]: 1.78 nM
Human FGFR2c binding Emax(OD450) [14]: 0.07 OD450
inhibition of FGF7-induced BaF3_hFGFR2b cell proliferation ([15]; FGF7 40 ng/ml): ten times less potent compared to BGA1421 and BGAm1823; also recorded: weaker blocking than comparator BGA1421
inhibition of FGF10-induced BaF3_hFGFR2b cell proliferation ([15]; FGF10 40 ng/ml): did not inhibit the net growth
293T blank cells binding Emax [16]: 28 MFI

B2: Aprutumab ixadotin: FGFR2 antibody conjugated to auristatin (conjugate, chains of the INN, looked up)
VH: EVQLLESGGGLVQPGGSLRLSCAASGFTFSSYAMSWVRQAPGKGLEWVSAISGSGTSTYYADSVKGRFTISRDNSKNTLYLQMNSLRAEDTAVYYCARVRYNWNHGDWFDPWGQGTLVTVSS
VL: QSVLTQPPSASGTPGQRVTISCSGSSSNIGNNYVSWYQQLPGTAPKLLIYENYNRPAGVPDRFSGSKSGTSASLAISGLRSEDEADYYCSSWDDSLNYWVFGGGTKLTVL
modifications: auristatin payload conjugate
notes: FGFR2 antibody conjugated to auristatin
tolerability in clinical testing [17]: poorly tolerated
